Test results reported in PMC10698143, “Phosphorylation of MIF by PIP4K2a is necessary for cilia biogenesis” (Cell Death & Disease, 2023).

Molecular target: T1, PIP4K2a on the HuProt human protein chip (human, UniProt P48426 1-406)
T1 construct: Phosphatidylinositol-5-phosphate 4-kinase type 2 alpha, human recombinant protein of the HuProt chip; construct not described; source: human recombinant protein, highly purified, spotted on the HuProt human protein chip
T1 sequence (looked up): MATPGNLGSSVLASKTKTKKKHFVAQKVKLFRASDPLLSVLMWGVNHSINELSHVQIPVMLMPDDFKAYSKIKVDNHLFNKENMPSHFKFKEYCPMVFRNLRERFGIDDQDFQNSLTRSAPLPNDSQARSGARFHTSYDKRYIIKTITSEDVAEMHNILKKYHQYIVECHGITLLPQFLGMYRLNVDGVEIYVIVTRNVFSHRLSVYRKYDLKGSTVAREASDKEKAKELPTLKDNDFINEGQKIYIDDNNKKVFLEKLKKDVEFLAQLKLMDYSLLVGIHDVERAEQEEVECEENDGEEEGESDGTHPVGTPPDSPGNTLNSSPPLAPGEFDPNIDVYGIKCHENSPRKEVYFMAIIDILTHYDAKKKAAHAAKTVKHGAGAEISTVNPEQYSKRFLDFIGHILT
Experiment: peptide or protein array; HuProt human protein chip (>21,000 purified human recombinant proteins on nitrocellulose-coated slides), renatured in 50 mM Tris-HCl pH 8.0, 100 mM NaCl, 1 mM DTT, 0.3% Tween 20, blocked with 5% BSA; probed with 50 nM purified human MIF for 1 h; detected with rabbit anti-MIF and Cy3 anti-rabbit IgG; hit if SNR of both duplicates over 1.2
Details: both partners purified

binding result: binds
B1: recombinant human MIF (rhMIF) (natural protein, UniProt P14174 1-115, looked up)
chain: MPMFIVNTNVPRASVPDGFLSELTQQLAQATGKPPQYIAVHVVPDQLMAFGGSSEPCALCSLHSIGKIGGAQNRSYSKLLCGLLAERLRISPDRVYINYYDMNAANVGWNNSTFA
notes: No catalogue number printed; also called purified human MIF protein; human recombinant MIF protein; source: bought: R&D Systems
